In US20190300875A1 (University of California, published 2019):

Experiments:
[1] = molecular target: T1, Arabidopsis cryptochrome 2 (CRY2) (Arabidopsis, UniProt Q96524 1-612); assay: yeast β-gal assay, dark or blue light (FIG. 5H)
T1 construct: also called AT1G04400
Experimental: The H293 cells were transfected with vector expressing CRY2 only (CRY2), or together with vector expression Myc-BIC1 (CRY2+BIC1) and cultured in dark for 24 hours. The cells were cracked and divided into equally 12 tubes, then treated with blue light (40 μmol m⁻² s⁻¹) for the duration indicated. The sample were analyzed by western blot using anti-CRY2 antibody and anti-Myc antibody sequentially. (FIG. 5B) β-Gal assay of yeast cells expressing indicated proteins kept in darkness (D) or irradiated with blue light (B50, 50 μmol m⁻² s⁻¹) for indicated durations. (FIG. 5C) Fluorescence images showing the formation of CRY2-GFP nuclear bodies in the protoplasts of WT, BIC1-OX line or […]. The protoplasts transformed with CRY2-GFP construct were kept in darkness overnight and then irradiated with blue light (20 μmol m⁻² s⁻¹) for the time indicated. […] Each sample contains at least 50 protoplast. Means and SD (n=3) are shown. (FIG. 5E) BiFC analysis of the blue-light-induced formation of CRY2 nuclear bodies in protoplasts of WT, BIC1-OX line or BIC2-OX line. The protoplasts transformed with cYFP-CRY2 and nYFP-CRY2 constructs were kept in darkness overnight and then irradiated with blue light (20 μmol m⁻² s⁻¹) for the time indicated. […] Each sample contains at least 50 protoplast. Means and SD (n=3) are shown. […]

[2] = molecular target: T2, cCFP-CRY2 (C terminus of cyan fluorescent protein fused to CRY2) (Arabidopsis, UniProt Q96524 1-612); assay: BiFC in Arabidopsis protoplasts
T2 construct: BiFC construct in Arabidopsis protoplasts; not shown: C terminus of cyan fluorescent protein

| Binder | binding result [1] | binding result [2] |
| --- | --- | --- |
| Arabidopsis CIB1 (cryptochrome-interacting basic-helix-loop-helix) protein (other, also called AT4G34530) MNGAIGGDLLLNFPDMSVLERQRAHLKYLNPTFDSPLAGFFADSSMITGGEMDSYLSTAGLNLPMMYGETTVEGDSRLSISPETTLGTGNFKKRKFDTETKDCNEKKKKMTMNRDDLVEEGEEEKSKITEQNNGSTKSIKKMKHKAKKEENNFSNDSSKVTKELEKTDYIHVRARRGQATDSHSIAERVRREKISERMKFLQDLVPGCDKITGKAGMLDEIINYVQSLQRQIEFLSMKLAIVNPRPDFDMDDIFAKEVASTPMTVVPSPEMVLSGYSHEMVHSGYSSEMVNSGYLHVNPMQQVNTSSDPLSCFNNGEAPSMWDSHVQNLYGNLGV | binds | – |
| nYFP-CRY2 (N terminus of YFP fused to CRY2) (other, BiFC construct in Arabidopsis protoplasts; not shown: N terminus of YFP) MKMDKKTIVWFRRDLRIEDNPALAAAAHEGSVFPVFIWCPEEEGQFYPGRASRWWMKQSLAHLSQSLKALGSDLTLIKTHNTISAILDCIRVTGATKVVFNHLYDPVSLVRDHTVKEKLVERGISVQSYNGDLLYEPWEIYCEKGKPFTSFNSYWKKCLDMSIESVMLPPPWRLMPITAAAEAIWACSIEELGLENEAEKPSNALLTRAWSPGWSNADKLLNEFIEKQLIDYAKNSKKVVGNSTSLLSPYLHFGEISVRHVFQCARMKQIIWARDKNSEGEESADLFLRGIGLREYSRYICFNFPFTHEQSLLSHLRFFPWDADVDKFKAWRQGRTGYPLVDAGMRELWATGWMHNRIRVIVSSFAVKFLLLPWKWGMKYFWDTLLDADLECDILGWQYISGSIPDGHELDRLDNPALQGAKYDPEGEYIRQWLPELARLPTEWIHHPWDAPLTVLKASGVELGTNYAKPIVDIDTARELLAKAISRTREAQIMIGAAPDEIVADSFEALGANTIKEPGLCPSVSSNDQQVPSAVRYNGSKRVKPEEEEERDMKKSRGFDERELFSTAESSSSSSVFFVSQSCSLASEGKNLEGIQDSSDQITTSLGKNGCK | – | binds |
